Results as given in patent US8252981B2 (Athenix Corp., priority 2006, dated 2012).

System: BL21*DE3 competent E. coli cells
Assay: Selection for glyphosate resistance on M63+ plates containing 150 mM glyphosate
Assay type: cell-based
Conditions: E. coli clones expressing the variant, 150 mM glyphosate plates
Experimental: The mutagenized syngrg23 libraries were transformed into E. coli strain BL21*DE3 star (Invitrogen). Following transformation, individual colonies were plated on 1× M63 medium containing 150 mM glyphosate to select for clones that had retained enzymatic activity and growth tolerance.
Library ligations were transformed into BL21*DE3 competent E. coli cells (Invitrogen). The transformations were performed according to the manufacturer's instructions with the following modifications. After incubation for 1 hour at 37° C. in SOC medium, the cells were sedimented by centrifugation (5 minutes, 1000×g, 4° C.). The cells were washed with 1 ml M63+, centrifuged again, and the supernatant decanted. The cells were washed a second time with 1 ml M63+ and resuspended in 200 ul M63+.
The plates were incubated for 36 hours at 37° C.
Colonies identified on glyphosate plates were pinned into 96-well blocks containing LB medium and were grown to an O.D. of about 0.6. IPTG was then added (0.5 mM) and the blocks were incubated overnight at 20° C. to induce protein expression. Protein extracts were prepared from the cell pellets using POP culture reagent (Novagen) and Lysonase (Novagen), and the enzymatic activity in the crude lysates was measured after heating the extracts for 30 min at 37° C.

Molecule | glyphosate resistance (in words)
GRG23(L3P1.B20): GRG23 variant, SEQ ID NO:21; mutation at V206 (protein, GRG23(L3P1.B20), mutation at V206) METDRLVIPGSKSITNRALLLAAAAKGTSVLVRPLVSADTSAFKTAIQALGANVSADGDNWVVEGLGQAPHLDADIWCEDAGTVARFLPPFVAAGQGKFTVDGSEQLRRRPLRPLVDGIRHLGARVSSEQLPLTIEASGLAGGEYEIEAHQSSQFASGLIMAAPYARQGLRVRIPNPVSQPYLTMTLRMMRDFGLETSTDGATVSIPPGRYTARRYEIEPDASTASYFAAASAVSGRSFEFQGLGTDSIQGDTSFFNVLGRLGAEVHWAPNSVTISGPERLNGDIEVDMGEISDTFMTLAAIAPLADGPITITNIGHARLKESDRISAMETNLRTLGVQTDVGHDWMRIYPSTPHGGRVNCHRDHRIAMAFSILGLRVDGITLDDPQCVGKTFPGFFDYLGRLFPEKALTLPG | retained glyphosate resistance
GRG23(L3P1.F18): GRG23 variant, SEQ ID NO:25; T274→I (protein, GRG23(L3P1.F18), T274→I) METDRLVIPGSKSITNRALLLAAAAKGTSVLVRPLVSADTSAFKTAIQALGANVSADGDNWVVEGLGQAPHLDADIWCEDAGTVARFLPPFVAAGQGKFTVDGSEQLRRRPLRPLVDGIRHLGARVSSEQLPLTIEASGLAGGEYEIEAHQSSQFASGLIMAAPYARQGLRVRIPNPVSQPYLTMTLRMMRDFGLETSTDGATVSVPPGRYTARRYEIEPDASTASYFAAASAVSGRSFEFQGLGTDSIQGDTSFFNVLGRLGAEVHWAPNSVIISGPERLNGDIEVDMGEISDTFMTLAAIAPLADGPITITNIGHARLKESDRISAMETNLRTLGVQTDVGHDWMRIYPSTPHGGRVNCHRDHRIAMAFSILGLRVDGITLDDPQCVGKTFPGFFDYLGRLFPEKALTLPG | retained glyphosate resistance
GRG23(L3P1.023): GRG23 variant, SEQ ID NO:27; R5→H (protein, GRG23(L3P1.O23), R5→H) METDHLVIPGSKSITNRALLLAAAAKGTSVLVRPLVSADTSAFKTAIQALGANVSADGDNWVVEGLGQAPHLDADIWCEDAGTVARFLPPFVAAGQGKFTVDGSEQLRRRPLRPLVDGIRHLGARVSSEQLPLTIEASGLAGGEYEIEAHQSSQFASGLIMAAPYARQGLRVRIPNPVSQPYLTMTLRMMRDFGLETSTDGATVSVPPGRYTARRYEIEPDASTASYFAAASAVSGRSFEFQGLGTDSIQGDTSFFNVLGRLGAEVHWAPNSVTISGPERLNGDIEVDMGEISDTFMTLAAIAPLADGPITITNIGHARLKESDRISAMETNLRTLGVQTDVGHDWMRIYPSTPHGGRVNCHRDHRIAMAFSILGLRVDGITLDDPQCVGKTFPGFFDYLGRLFPEKALTLPG | retained glyphosate resistance
grg23(L3P1B3): GRG23 variant, SEQ ID NO:23; D75→H, E217→K (protein, GRG23(L3P1.B3), D75→H, E217→K) METDRLVIPGSKSITNRALLLAAAAKGTSVLVRPLVSADTSAFKTAIQALGANVSADGDNWVVEGLGQAPHLDAHIWCEDAGTVARFLPPFVAAGQGKFTVDGSEQLRRRPLRPLVDGIRHLGARVSSEQLPLTIEASGLAGGEYEIEAHQSSQFASGLIMAAPYARQGLRVRIPNPVSQPYLTMTLRMMRDFGLETSTDGATVSVPPGRYTARRYKIEPDASTASYFAAASAVSGRSFEFQGLGTDSIQGDTSFFNVLGRLGAEVHWAPNSVTISGPERLNGDIEVDMGEISDTFMTLAAIAPLADGPITITNIGHARLKESDRISAMETNLRTLGVQTDVGHDWMRIYPSTPHGGRVNCHRDHRIAMAFSILGLRVDGITLDDPQCVGKTFPGFFDYLGRLFPEKALTLPG | retained glyphosate resistance
